Laboratory results as given in IntAct's records for PubMed 17576925.

B1: Long-distance movement protein (Groundnut rosette virus (strain MC1)), Q67684 (parent)
chain: MDTTPASRGQWPVGIMSSVINVFASGKSCNSGGAPRSSVRRGHRAGAARDKSRGFDAPPRRPKGGVHPATTSKDPNKDIRGPPAPTPHKKYRGPAIPGEGRSGVHTTRPRRRAGRSGGMDPRQLVAQPQQRWAKTEIPTERRAEIDGLLPSLLNTLDGQIQGDAALLRYCVGAIKRELRRRWESVQPAHHVAASSGKPSPQLFNEAAQNAEDLSGDGKGCAGQSVQQEVLHSGSGVPPVCADCGKPAANKW
partner: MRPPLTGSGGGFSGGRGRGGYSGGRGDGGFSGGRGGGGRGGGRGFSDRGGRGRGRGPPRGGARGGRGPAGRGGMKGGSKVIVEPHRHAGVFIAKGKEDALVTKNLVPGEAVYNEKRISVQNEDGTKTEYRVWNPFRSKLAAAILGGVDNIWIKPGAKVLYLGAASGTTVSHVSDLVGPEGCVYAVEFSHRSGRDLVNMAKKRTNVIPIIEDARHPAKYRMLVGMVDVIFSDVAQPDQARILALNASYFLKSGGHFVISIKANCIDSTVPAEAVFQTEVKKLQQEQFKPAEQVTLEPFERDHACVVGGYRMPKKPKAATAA

Variants of: B1
Conditions: with fbrl2_arath FIB2, Q94AH9
With L149A the “effect of a mutation on the interaction” value was “disrupting interaction strength”.
